# Patent publication US20250170247A1, “CONJUGATES, AND USES THEREOF” (CITY UNIVERSITY OF HONG KONG, priority 2023, published 2025)
# {5Hexynyl} = hexynyl group used for click conjugation
# T1: RHAU53 (Homo sapiens, UniProt Q9H2U1)
# T1 construct: RHAU-specific motif containing 53 amino acids (RHAU53)
# T1 sequence (Q9H2U1 53-105 limits assumed): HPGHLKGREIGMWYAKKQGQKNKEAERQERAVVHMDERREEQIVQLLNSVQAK
# T2: RHAU53 peptide (53-aa RHAU/DHX36 G4-binding fragment) (UniProt Q9H2U1 Q9H2U1:53-105)
# T2 chain: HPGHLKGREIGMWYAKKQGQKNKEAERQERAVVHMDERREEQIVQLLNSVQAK
# T3: DHX36 (RHAU), full-length (UniProt Q9H2U1 Q9H2U1:1-1008)
# T3 sequence: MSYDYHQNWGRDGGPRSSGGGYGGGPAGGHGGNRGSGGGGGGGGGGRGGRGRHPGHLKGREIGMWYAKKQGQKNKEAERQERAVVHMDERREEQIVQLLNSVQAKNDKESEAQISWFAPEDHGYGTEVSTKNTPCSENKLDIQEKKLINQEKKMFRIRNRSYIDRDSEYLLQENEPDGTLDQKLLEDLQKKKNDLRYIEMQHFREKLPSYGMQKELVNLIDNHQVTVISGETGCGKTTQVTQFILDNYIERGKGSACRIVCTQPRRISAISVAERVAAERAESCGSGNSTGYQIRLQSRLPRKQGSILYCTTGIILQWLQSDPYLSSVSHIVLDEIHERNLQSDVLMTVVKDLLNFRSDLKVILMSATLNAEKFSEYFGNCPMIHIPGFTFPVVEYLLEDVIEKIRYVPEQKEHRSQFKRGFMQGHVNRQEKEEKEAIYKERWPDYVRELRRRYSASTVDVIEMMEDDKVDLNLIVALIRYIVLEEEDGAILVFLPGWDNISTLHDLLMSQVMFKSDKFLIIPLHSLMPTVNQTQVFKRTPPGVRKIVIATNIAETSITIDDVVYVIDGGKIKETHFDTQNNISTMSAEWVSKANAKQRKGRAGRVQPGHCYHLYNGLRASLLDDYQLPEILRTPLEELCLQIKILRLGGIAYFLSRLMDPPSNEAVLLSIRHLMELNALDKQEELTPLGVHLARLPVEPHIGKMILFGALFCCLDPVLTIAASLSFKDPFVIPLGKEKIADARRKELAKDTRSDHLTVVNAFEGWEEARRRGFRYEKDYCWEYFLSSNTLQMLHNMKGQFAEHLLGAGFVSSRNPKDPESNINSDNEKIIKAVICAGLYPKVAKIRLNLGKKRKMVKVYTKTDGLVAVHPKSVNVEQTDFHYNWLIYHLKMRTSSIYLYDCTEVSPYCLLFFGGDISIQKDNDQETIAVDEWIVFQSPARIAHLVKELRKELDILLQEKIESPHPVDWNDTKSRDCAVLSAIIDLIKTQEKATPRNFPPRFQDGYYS
# Experiments:
# RHAU53 = target: T1, RHAU53; details: It is known; cited from earlier work
# [1] = target: T2, RHAU53 peptide (53-aa RHAU/DHX36 …); assay: EMSA; 25 mM Tris-HCl pH 7.5, 150 mM KCl, 1 mM MgCl2, 37 C; details: label: 3'-FAM
# Method: All oligonucleotides were heated for 5 minutes at 75° C. and cooled down for 10 minutes on ice. Different concentrations of RHAU53 peptide (0-2 μM) and 5-carboxyfluorescein (FAM)-labeled oligonucleotides or G4-compound conjugate (30 nM) were mixed in the Tris-HCl buffer (25 mM Tris-HCl, pH 7.5, 150 mM KCl and 1 mM MgCl₂). The mixture was incubated at 37° C. for 30 minutes, and 5% glycerol was then added to each sample. Bound and unbound RNAs were separated on 10% native polyacrylamide gel in 0.5× Tris/Borate/EDTA (TBE) at 4° C., 150 V for 30 minutes. The gel was scanned by scanner at 500 V and quantified by software.
# To evaluate the target recognition ability of the rG4-PROTACs, the binding assay of FAM_rG4_A to RHAU53 peptide was performed by EMSA. RHAU53 peptide, the truncated DHX36 fragment, is the most important core protein domain required for rG4-RHAU interaction.
# [2] = target: T3, DHX36 (RHAU), full-length; assay: MST; 25 mM Tris-HCl pH 7.5, 150 mM KCl, 1 mM MgCl2, 37 C; details: label: 3'-FAM; G4
# Method: Before the reaction, FAM labeled G4-compound conjugate was heated at 75° C. for 5 minutes and cooled down on the ice for 10 minutes. DHX36 protein was serially diluted to 16 samples from the highest concentration of […]. FAM-labeled oligonucleotides (40 nM) were added to each sample and incubated in Tris-HCl buffer (25 mM Tris-HCl, pH 7.5, 150 mM KCl, and 1 mM MgCl₂) at 37° C. for 30 minutes. Binding affinity was carried out on capillary tubes using an MST machine. The curve fitting and Kd determination were obtained from software.
# Full-length DHX36 protein was then used to further confirm the recognition of the present rG4-PROTAC to G4BP via MST binding assay. […] As described above, the affinity of A_dG4_FAM to RHAU53 was nearly 4.7 times higher (Kd=[…]) than that of FAM_rG4_A (FIG. 2B). The interaction between A_dG4_FAM and DHX36 protein quantified by MST (Kd=303±55; FIG. 2D) confirmed the result, indicating a relatively weaker interaction with DHX36.
# [3] = target: T3, DHX36 (RHAU), full-length; assay: EMSA; strong binding, data not shown; details: G4
molecule,measurement,setting,value
"hTERC rG4: human telomerase RNA component rG4, 5′-GGGUUGCGGAGGGUGGGCCU-3′ (SEQ ID NO: 1), the warhead targeting G4BP (RNA, 5' {5Hexynyl}, backbone not given here; further chemistry not fully specified)",affinity for RHAU53,RHAU53,nanomolar affinity
"GGGUUGCGGAGGGUGGGCCU (ssRNA, 5'-hexynyl clicked to azide-modified AHPC) [FAM_rG4_A (hTERC rG4 WT-AHPC conjugate)]",Kd,[1],67.4 nM
same,Kd,[2],79.7 nM
CGGGGCGGGUGGGGAGGGGU (ssRNA) [APP 3'UTR rG4],binding result,[3],binds
